Experiment [1] has as its target T1, purified human/cynomolgus/dog/mouse/rat or minipig DLL3 antigen (ELISA coat) (human/cynomolgus/dog/mouse/rat or …).
T1 construct: May be the same protein as the his-tagged antigen used for BLI
The experiment is described as follows: ELISA, plate coated with purified DLL3 antigen, HRP secondary (FIG. 8). Here is the method: (§1) Binding affinity of the novel antigen binding constructs to a purified human/cynomolgus/dog/mouse/rat or minipig DLL3 antigen was assessed using ELISA. For this assay, a 96 well ELISA plate was coated with the DLL3 antigen diluted to a concentration of […] in coating buffer (0.05M sodium carbonate-bicarbonate buffer, pH 9.6). 100 μl of this coating solution was added to each well in the plate and incubate at 4° C. overnight. The plate was washed 3 times with 300 μl per well of washing buffer (PBS with 0.05% Tween-20). After the last wash, the plate was blocked by adding to each well 200 μl of blocking buffer (PBS with 1% BSA) warmed to room temperature. The plate was then incubated at room temperature for 1 hour under gentle agitation. After blocking, the plate was washed 3 times with 300 μl per well of washing buffer. Dilution samples for each minibody were created by making 2.5× dilutions from a starting sample at 100 ng/mL, or 250 ng/mL, or 1000 ng/mL or 3000 ng/mL in 100 μL sample buffer (PBS with 1% BSA). The dilution samples were transferred to the assay plate and incubated at room temperature for 1 hour under gentle agitation. The plate was then washed 3 times with 300 μl per well of washing buffer.
Detection was performed by adding 100 μl of HRP labeled detection secondary antibody at an appropriate dilution and incubating the plate at room temperature for 1 hour under gentle agitation. The plate was then washed 3 times with 300 μl per well of washing buffer. For color development, 100 μl of TMB substrate regent, pre-warmed to room temperature, was added to the plate and incubated in the dark at room temperature for 15 min. The reaction was then stopped by adding 100 μl of 650 nm stop solution to the plate and mixed for 1 min at room temperature under gentle agitation. The plate is recorded by reading OD at 650 nm in a plate reader within 20 min after terminating the reaction.
In general terms: In an ELISA, binding on a coated surface is turned into a signal by an enzyme label.

Experiment [2] concerns the target T2, DLL3 on tumor cells of the SHP-77 and NCI-H82 cell lines (UniProt Q9NYJ7 27-618, limits assumed).
T2 construct: whole, on cells; also called cellular targets
T2 sequence (looked up): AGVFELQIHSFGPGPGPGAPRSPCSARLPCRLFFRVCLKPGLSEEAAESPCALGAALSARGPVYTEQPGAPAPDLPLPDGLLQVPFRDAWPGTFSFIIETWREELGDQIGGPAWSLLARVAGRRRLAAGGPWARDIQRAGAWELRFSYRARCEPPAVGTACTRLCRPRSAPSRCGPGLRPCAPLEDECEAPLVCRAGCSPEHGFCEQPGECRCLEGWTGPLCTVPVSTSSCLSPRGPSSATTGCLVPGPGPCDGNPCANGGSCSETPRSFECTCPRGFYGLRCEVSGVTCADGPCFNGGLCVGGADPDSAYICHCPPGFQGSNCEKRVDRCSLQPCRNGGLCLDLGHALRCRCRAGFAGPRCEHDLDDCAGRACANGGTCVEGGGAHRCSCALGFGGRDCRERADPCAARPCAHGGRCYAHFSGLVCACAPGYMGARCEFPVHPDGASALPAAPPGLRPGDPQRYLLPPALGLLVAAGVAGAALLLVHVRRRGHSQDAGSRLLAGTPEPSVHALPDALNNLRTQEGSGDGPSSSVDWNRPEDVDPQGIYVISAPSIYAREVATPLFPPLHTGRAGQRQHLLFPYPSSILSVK
The experiment can be described thus: flow cytometry on SHP-77 tumor cells, mean fluorescence; the legend gives no unit, nM is from the axis '[Minibody],nM'. Here is the method:
(§2) As disclosed herein, the binding of constructs to cellular targets was assessed using flow cytometry. Stock of 2.5× serial dilution of minibodies were created starting from a concentration of 100 nM in 180 μl FACS buffer (PBS 2% FBS). Cells were added to a Corning V-bottom polypropylene cell culture plate at 200,000 cells/well. The cells were centrifuged at 100 rpm for 3 minutes and the supernatant discarded. The minibody dilution series were transferred to the plate containing cell pellets and incubated for 1 hr at 4° C. The plate was then washed 3 times with FACS buffer at 200 μl/well, discarding supernatant after each wash by centrifugation at 1000 rpm. 50 μl/well of detection antibody R&D AlexaFluor-647 Goat anti Human (H+L) was added at a 1:100 dilution in FACS buffer and incubated at 4° C. 1 hr. The plate was washed 3 times with FACS buffer at 200 μl/well, discarding supernatant after each wash by centrifuging at 1000 rpm. Cells were then fixed by adding 100 μl of 1% paraformaldehyde in PBS and incubating at room temperature for 15 minutes. 100 μl of PBS were added to each well and the plate was analyzed by flow cytometry using the allophycocyanin fluorescence setting.
In general terms: A flow cytometer gives signals particle by particle.

The target of experiment [3] is T1, purified human/cynomolgus/dog/mouse/rat …. The experiment can be described thus: ELISA on plate-coated recombinant DLL3 antigen, A650 readout, panel with IAB57M1-7, IAB57M2-8, IAB57M1-3 and IAB57M2-6; the table gives no unit, nM is from the axis 'Antibody Concentration (nM)'. Here is the method: as §1, with “The dilution samples were transferred to the assay plate and incubated at room temperature for 1 hour under gentle agitation. The plate was then washed 3 times with 300 μl per well of washing buffer.” left out
(§3) Detection was performed by adding 100 μl of HRP labeled detection secondary antibody at an appropriate dilution and incubating the plate at room temperature for 1 hour under gentle agitation. […] The plate is recorded by reading OD at 650 nm in a plate reader within 20 min after terminating the reaction.

The target of experiment [4] is T3, his-tagged-DLL3 antigen (purified human/cynomolgus/dog/mouse/rat or minipig DLL3 antigen) (human/cynomolgus/dog/mouse/rat or …).
T3 construct: Antigen loaded on nickel-NTA tips for biolayer interferometry; also called Delta-like protein 3
The experiment can be described thus: biolayer interferometry (Octet BLItz), his-tagged DLL3 on nickel-NTA tip, minibody in solution. How it is done: (§4) As disclosed herein, the binding kinetics of the novel antigen binding constructs to a purified human/cynomolgus/dog/mouse/rat or minipig DLL3 antigen was assessed using biolayer interferometry (TABLE 9) (FIG. 9). The his-tagged-DLL3 antigen was diluted in phosphate buffer saline (PBS) at 10 μg/mL and loaded on a nickel-NTA tip until saturation. The on-rate (Kon) and off-rate (Koff), and the dissociation constant KD, where recorded on Octet BLItz instrument. Dilution samples of the antigen binding construct were prepared in PBS at concentrations between 100 nM and 0.1 nM, by 2.5× dilutions and binding curves recorded at each concentration. Off-rate curves were recorded by immersion of the tip in PBS.
On the technique in general: BLI is a label-free optical method that tracks binding on a fibre tip over time.

Experiment [5] concerns the target T2, DLL3 on tumor cells of the SHP-77 and …. The experiment can be described thus: flow cytometry on NCI-H82 tumor cells, mean fluorescence; the legend gives no unit, nM is from the axis '[Minibody],nM'. Here is the method:
as §2

Experiment [6] concerns the target T1, purified human/cynomolgus/dog/mouse/rat …. The experiment can be described thus: ELISA on plate-coated recombinant DLL3 antigen, A650 readout, panel with IAB57M1-7, IAB57M2-8, IAB57M1-3 and IAB57M2-6. How it is done:
as §1, with “The dilution samples were transferred to the assay plate and incubated at room temperature for 1 hour under gentle agitation. The plate was then washed 3 times with 300 μl per well of washing buffer.” left out
as §3

Experiment [7] has as its target T3, his-tagged-DLL3 antigen (purified …). The experiment is described as follows: biolayer interferometry, his-tagged DLL3 on a Ni-NTA tip, minibody at 100 nM; the table gives no unit, nm is from the axis 'Binding (nm)'. Here is the method:
as §4

Data on two molecules can be found in US20260234226A1 (IMAGINAB, published 2026).

The EC50 is the concentration giving half of the maximal effect. The Kd is the concentration at which binding is half-saturated. Higher therefore signals weaker binding. In general, koff refers to a measure of how fast the partners let go of each other. As usually defined, the kon is the second-order rate constant of association. Read a high kon as fast association. One may read the EC50 (read off the curve) as the concentration giving half of the maximal effect.

T3 sequence (Q9NYJ7 whole entry): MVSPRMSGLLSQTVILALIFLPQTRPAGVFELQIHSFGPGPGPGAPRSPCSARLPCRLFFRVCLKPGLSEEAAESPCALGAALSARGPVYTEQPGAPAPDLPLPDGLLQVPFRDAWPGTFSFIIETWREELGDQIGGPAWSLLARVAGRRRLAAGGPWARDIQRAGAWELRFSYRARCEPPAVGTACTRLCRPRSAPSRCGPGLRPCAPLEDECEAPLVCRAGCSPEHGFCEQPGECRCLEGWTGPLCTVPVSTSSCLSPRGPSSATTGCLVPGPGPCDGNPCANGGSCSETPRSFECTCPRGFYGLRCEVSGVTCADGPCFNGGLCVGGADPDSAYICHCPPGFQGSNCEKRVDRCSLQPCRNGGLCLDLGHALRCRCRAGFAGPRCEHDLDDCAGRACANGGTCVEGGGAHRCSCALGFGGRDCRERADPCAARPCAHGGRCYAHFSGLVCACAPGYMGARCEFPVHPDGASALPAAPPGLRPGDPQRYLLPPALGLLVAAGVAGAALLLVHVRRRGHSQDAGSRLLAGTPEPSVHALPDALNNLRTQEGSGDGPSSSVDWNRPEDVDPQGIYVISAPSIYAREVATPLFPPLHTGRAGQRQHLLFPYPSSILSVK
T1 sequence (Q9NYJ7 whole entry): as above

B1: IAB57M2-6 (other)
chain: QVQLVQSGAEVKKPGASVKVSCKASGYTFTNYGMNWVRQAPGQGLEWMGWINTYTGEPTYADDFKGRVTMTTDTSTSTAYMELRSLRSDDTAVYYCARIGDSSPSDYWGQGTLVTVSSGSTSGGGSGGGSGGGGSSEIVMTQSPATLSVSPGERATLSCKASQSVSNDVVWYQQKPGQAPRLLIYYASNRNTGIPARFSGSGSGTEFTLTISSLQSEDFAVYYCQQDYTSPWTFGQGTKLEIKEPKSSDKTHTCPPCPPCGGGSSGGGSGGQPREPQVYTLPPSREEMTKNQVSLTCLVKGFYPSDIAVEWESNGQPENNYKTTPPVLDSDGSFFLYSKLTVDKSRWQQGNVFSCSVMHEALHNHYTQKSLSLSPG
notes: Signal peptide left out
On to B1, for which the EC50 was 0.161 nM in experiment [1], 0.014 nM in experiment [2], 0.157 nM in experiment [3] and 0.063 nM in experiment [5]. Also, the Kd in experiment [4] is under 0.001 nM. Moreover, the koff in experiment [4] was under 1e-07 s⁻¹. Also, the on-rate (kon) in experiment [4] is 785000 M⁻¹ s⁻¹.

B2: IAB57M1-3 (other)
chain: EIVMTQSPATLSVSPGERATLSCKASQSVSNDVVWYQQKPGQAPRLLIYDASNRYTGIPARFSGSGSGTEFTLTISSLQSEDFAVYYCQQDYTSPWTFGQGTKLEIKGSTSGGGSGGGSGGGGSSQVQLVQSGAEVKKPGASVKVSCKASGYTFTNYGMNWVRQAPGQGLEWMGWINTYTGEPTYADDFKGRVTMTTDTSTSTAYMELRSLRSDDTAVYYCARIGDSSPSDYWGQGTLVTVSSEPKSSDKTHTCPPCPPCGGGSSGGGSGGQPREPQVYTLPPSREEMTKNQVSLTCLVKGFYPSDIAVEWESNGQPENNYKTTPPVLDSDGSFFLYSKLTVDKSRWQQGNVFSCSVMHEALHNHYTQKSLSLSPG
notes: Signal peptide left out
For B2, in experiment [6], the “EC50 (read off the curve)” value is about 0.1 nM. In experiment [1], this molecule gave an EC50 of 0.109 nM. Moreover, in experiment [2], the EC50 turned out to be 0.01 nM. Moreover, the R equilibrium in experiment [7] is 1.04 nm. In experiment [4], this molecule showed a Kd of 4 nM, a koff of 0.00239 s⁻¹ and a kon of 599000 M⁻¹ s⁻¹. The same molecule returned an EC50 in experiment [5] of 0.04 nM.
